Results taken from US20220363763A1 (ABL BIO, published 2022).

Columns and labels:
human LAG3 on cells [1] = target: T1, human LAG3 on cells (human, UniProt P18627 23-525); experiment: flow cytometry (MFI) on Jurkat-LAG3 cells, upper panel; EC50 table has no unit, x axis Concentration (nM); Table 31 of the text prints the rounded 1.2
T1 construct: whole, on cells; also called Jurkat-LAG3
T1 sequence (looked up): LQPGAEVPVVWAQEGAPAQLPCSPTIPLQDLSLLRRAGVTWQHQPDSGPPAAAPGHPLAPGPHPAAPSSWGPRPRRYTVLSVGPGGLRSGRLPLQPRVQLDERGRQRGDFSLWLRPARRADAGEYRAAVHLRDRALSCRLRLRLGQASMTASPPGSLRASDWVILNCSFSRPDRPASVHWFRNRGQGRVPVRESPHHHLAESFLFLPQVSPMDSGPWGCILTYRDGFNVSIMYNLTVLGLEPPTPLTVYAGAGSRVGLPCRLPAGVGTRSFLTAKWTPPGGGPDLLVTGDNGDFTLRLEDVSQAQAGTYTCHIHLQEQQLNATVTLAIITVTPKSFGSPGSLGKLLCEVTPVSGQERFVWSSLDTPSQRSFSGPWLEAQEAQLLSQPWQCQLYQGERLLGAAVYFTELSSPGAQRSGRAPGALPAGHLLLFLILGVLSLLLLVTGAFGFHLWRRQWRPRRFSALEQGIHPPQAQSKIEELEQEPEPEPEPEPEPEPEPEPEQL
Method: (§1) To further confirm affinity matured anti-LAG-3 antibodies could bind to cell-derived human LAG3, both inducible hLAG3 expressed Jurkat cells and activated PBMCs were used to test the binding capability of B3807b and B3810. In brief, Jurkat cells were resuspended in FACS buffer. Anti-LAG3 antibodies and isotype control were 4-fold serially diluted in FACS buffer with a dose ranging from 20 nM to 30 pM. The serially diluted antibodies were added to the cell suspension and incubated for 30 minutes on ice. Then after removal of unbound antibodies, cells were stained with anti-human IgG conjugated with Alexa Fluor 633 (Thermo, A21091). Fluorescence measurement was acquired on FACSCelesta flow cytometer and analyzed in Flowjo to determine the mean fluorescence intensities (MFI). To test anti-LAG3 antibodies' ability of binding to native human LAG3, PBMCs from health donor were stimulated with anti-CD3 (BD, 555336) and anti-CD28 (BD, 555725) both at a concentration of 1 ug/ml. Following 3 days' stimulation, cells were harvested and incubated with anti-LAG3 antibodies for 30 mins on ice. The cells were stained with anti-human CD4 and anti-human IgG. Analysis of antibodies binding to CD4+ cells were carried out on FACSCelesta flow cytometry. […] FIG. 31 is a graph showing the binding curve of anti-LAG3 antibodies.

human LAG3 on cells [2] = target: T1, human LAG3 on cells; experiment: flow cytometry on hLAG3-expressing Jurkat cells
Method: as §1

[3] = target: T2, recombinant human LAG-3-ECD-human IgG1 fusion protein (human, UniProt P18627 23-450, biotin-labeled in the MHC class II blocking assays); experiment: ELISA as Example 2.2, coated human LAG3 ECD-Fc
T2 construct: extracellular domain; also called LAG-3-huFc; LAG-3-ECD-huFc; not shown: human IgG1 Fc
T2 sequence (looked up): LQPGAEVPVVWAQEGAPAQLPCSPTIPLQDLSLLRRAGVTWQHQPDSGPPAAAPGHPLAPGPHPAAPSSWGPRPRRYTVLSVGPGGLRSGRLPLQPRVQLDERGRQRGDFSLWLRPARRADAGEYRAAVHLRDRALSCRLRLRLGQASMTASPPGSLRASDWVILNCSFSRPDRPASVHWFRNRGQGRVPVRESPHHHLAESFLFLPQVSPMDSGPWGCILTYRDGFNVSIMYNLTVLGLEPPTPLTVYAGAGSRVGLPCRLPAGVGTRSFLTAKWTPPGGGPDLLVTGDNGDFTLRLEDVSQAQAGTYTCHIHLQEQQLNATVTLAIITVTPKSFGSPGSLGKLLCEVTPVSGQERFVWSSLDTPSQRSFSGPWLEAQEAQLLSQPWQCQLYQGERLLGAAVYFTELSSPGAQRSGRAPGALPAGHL
Method: To evaluate the capability of the anti-LAG-3 antibodies to bind to human, rat, and mouse LAG3 the antibodies identified in Example 2.1 were evaluated for their binding property through ELISA. The human, rat and mouse LAG3 ECD-Fc protein were coated to ELISA plate at 1 μg/ml with 100 μl/well. Antibodies from Example 1 were serially diluted with ELISA diluent buffer. […] The resulting plates were washed and then labeled with anti-human IgG(Fab)-HRP antibody. The S31 can only bind to human LAG3. The S27 and T99 can bind to human LAG3 and rat/mouse LAG3 with lower potency. The S119 antibody can bind to human, rat and mouse LAG3 at high potency (FIGS. 22A-22D).

human LAG3 on cells [4] = target: T1, human LAG3 on cells; experiment: flow cytometry on activated CD4 T cells
Method: as §1

[5] = target: T3, human LAG3 (construct not stated) (human, UniProt P18627 23-450, limits assumed); experiment: BLI Octet Red 96, full kinetics, antigen 50-3.125 nM
T3 construct: also called human LAG3 protein; antigen
T3 sequence (looked up): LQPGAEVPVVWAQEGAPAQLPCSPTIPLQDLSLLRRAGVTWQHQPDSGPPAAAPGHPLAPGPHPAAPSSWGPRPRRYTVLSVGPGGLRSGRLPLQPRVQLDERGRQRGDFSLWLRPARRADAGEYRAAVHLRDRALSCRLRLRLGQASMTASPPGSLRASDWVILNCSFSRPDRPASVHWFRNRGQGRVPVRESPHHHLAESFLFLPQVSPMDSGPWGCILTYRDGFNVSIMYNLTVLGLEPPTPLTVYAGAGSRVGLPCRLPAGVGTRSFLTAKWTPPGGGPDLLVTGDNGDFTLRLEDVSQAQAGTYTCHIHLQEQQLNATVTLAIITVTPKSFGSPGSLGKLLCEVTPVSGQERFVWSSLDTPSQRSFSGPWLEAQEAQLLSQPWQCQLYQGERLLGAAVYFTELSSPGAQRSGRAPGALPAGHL
Method: The binding affinity was calculated by software in Octet® RED96 System.

human LAG3 on cells [6] = target: T1, human LAG3 on cells; experiment: flow cytometry (MFI) on activated CD4 T cells, lower panel; EC50 table has no unit, x axis Concentration (nM); Table 31 of the text prints the rounded 0.77
Method: as §1

[7] = target: T4, recombinant his-tag human LAG3-ECD protein (human, UniProt P18627 23-450); experiment: SPR Biacore T200, capture method as Example 2.7
T4 construct: extracellular domain; not shown: his tag
T4 sequence (looked up): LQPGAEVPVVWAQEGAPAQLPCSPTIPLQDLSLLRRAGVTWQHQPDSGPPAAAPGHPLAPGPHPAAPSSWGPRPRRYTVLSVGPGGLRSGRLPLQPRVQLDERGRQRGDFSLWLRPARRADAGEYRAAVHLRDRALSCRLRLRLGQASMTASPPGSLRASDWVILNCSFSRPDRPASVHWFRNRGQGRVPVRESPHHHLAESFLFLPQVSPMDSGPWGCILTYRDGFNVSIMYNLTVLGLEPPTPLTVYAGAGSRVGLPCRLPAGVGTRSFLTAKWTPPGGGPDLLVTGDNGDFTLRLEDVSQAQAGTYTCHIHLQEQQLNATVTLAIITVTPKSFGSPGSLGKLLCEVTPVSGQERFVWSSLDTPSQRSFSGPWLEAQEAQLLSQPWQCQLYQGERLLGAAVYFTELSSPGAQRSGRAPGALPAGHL

[8] = target: T3, human LAG3 (construct not stated); experiment: BLI Octet Red 96, affinity ranking

B1: 147H-13 (antibody, V domains shown)
VH: EVQLVQSGAEVKKPGASVKVSCKASGYTFTNYWLGWIKQAPGQGLEWIGDIYPGGDYINYNEKFKGKATLTADTSISTAYMELSRLRSDDTAVYYCARPNLPGDYWGQGTTVTVSS
VL: DIVMTQSPLSLPVTPGEPASISCRSSKSLLHSNGITYLYWYLQKPGQSPQLLIYQVSNLASGVPDRFSGSGSGTDFTLKISRVEAEDVGVYYCAQNLELPWTFGGGTKVEIK
notes: Common light chain; human gamma 1 / kappa constant domains; also called 147H4-13
EC50 (human LAG3 on cells [1]): 1.23 nM
EC50 (human LAG3 on cells [2]): 1.2 nM
EC50 [3]: 6.5 nM
EC50 (human LAG3 on cells [4]): 0.77 nM
Kd [5]: 18.2 nM
koff [5]: 0.0019 s⁻¹
kon [5]: 104000 M⁻¹ s⁻¹
EC50 (human LAG3 on cells [6]): 0.767 nM
Kd [7]: 14 nM
koff [7]: 0.03 s⁻¹
kon [7]: 2.2e+06 M⁻¹ s⁻¹
Kd [8]: 21.6 nM
koff [8]: 0.00234 s⁻¹
kon [8]: 108000 M⁻¹ s⁻¹
